Data taken from paper PMC8554075 (Immunity, 2021).
Changes are numbered by the printed parent chain.

B1: AB-3467, expressed as human IgG1 (antibody, V domains shown)
VH: QVQLQESGPGLVKPSETLSLTCTVSGGSISSYHWNWIRQPPGKGLEWIGYIYYSGNTNYNPSLKSRVSISTDTSKNQFSLKLSSVTAADTAVYYCVREMRRGYSGYDYWDLYAFDIWGQGTMVTVSS
VL: DIQLTQSPSFLSASVGDRVTITCRASQGISSYLAWYQQKPGKAPNLLIYAASTLQSGVPSRFSGSGSGTEFTLTISSLQPEDFATYYCQQLNSYPHTFGQGTKLEIK
B2: AB-3623, expressed as human IgG1 (antibody, V domains shown)
VH: B1 VH with T23A, H33Y, K43T, N56R, S68T, T71V, V96A, Y108D
VL: B1 VL with A13T, V15I
B3: AB-4873, expressed as human IgG1 (antibody, V domains shown)
VH: QVQLVQSGAEVKKPGASVKVSCKASGYTFTSYYMHWVRQAPGQGLEWMGIINPSAGTTNYAQKFQGRVTMTRDTSTSTVYMELSSLRPEDTAVYYCARENYYGWGSYPFDYWGQGTLVTVSS
VL: B1 VL with I2V, N45K, S65T, H96Y
B4: AB-2445, expressed as human IgG1 (antibody, V domains shown)
VH: QVQLVESGGGVVQPGRSLRLSCAASGFTFSSYGMHWVRQAPGKGLEWVAVIWYDGSNKYYADSVKGRFTISRDNSKNTLYLQMNSLRAEDTAVYYCARDDYYGSGSYDYYGMDVWGQGTTVTVSS
VL: DIQMTQSPSSLSASVGDRITITCRASQGIRNDLDWYQQKPGKAPKRLIYAASSLQSGVPSRFSGSGSGTEFTLTISSLQPEDFATYYCLQHNSYPPYTFGQGTKLEIK
B5: AB-4689, expressed as human IgG1 (antibody, V domains shown)
VH: QVQLVQSGAEVKKPGASVKVSCKASGYTFSSYGISWVRQAPGQGLEWMGWISAYNGNTYYAQKLQGRVTMTTDTSTSTAYMELRSLRSDDTAVYYCAREFGRLIVHFDYWGQGTLVTVSS
VL: EIVLTQSPDFQSVTPKEKVTITCRASQSIGSSLSWYQQKPDQSPKLLIKCASQSISGVPSRFSGSGSGTDFTLTINSLEAEDAAAYYCHQSSSLPYTFGQGTKLEIK

Key:
[1] = molecular target: T1, SARS-CoV-2 receptor-binding domain (SARS-CoV-2, UniProt P0DTC2); assay: BLI
[2] = molecular target: T1, SARS-CoV-2 receptor-binding domain; assay: cell-based or functional assay

Binder	Kd [1] [nM]	neutralization of live CoV2 virus, Vero E6 cells (blocks RBD-ACE2) [2] [µg/mL]
B1	4.1	0.179
B2	2.3	–
B3	4.1	–
B4	–	0.37
B5	0.24	–
